“And” between values parts separate entries of the source, which are not always exact repeats. Equal values may be shown once.
T1: Bee Hyaluronidase (bee)
T1 chain: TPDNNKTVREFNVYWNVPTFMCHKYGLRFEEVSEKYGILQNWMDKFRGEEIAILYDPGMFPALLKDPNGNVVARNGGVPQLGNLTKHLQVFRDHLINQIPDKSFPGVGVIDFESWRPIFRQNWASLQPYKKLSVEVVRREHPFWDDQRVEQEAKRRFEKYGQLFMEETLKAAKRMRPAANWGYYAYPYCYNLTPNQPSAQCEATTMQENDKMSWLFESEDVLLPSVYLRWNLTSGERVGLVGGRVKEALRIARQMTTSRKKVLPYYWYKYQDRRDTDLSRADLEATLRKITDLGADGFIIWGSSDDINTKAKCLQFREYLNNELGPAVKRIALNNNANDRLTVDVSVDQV


Key:
[1] = molecular target: T1, Bee Hyaluronidase; assay: SPR; XPR repeat 1
[2] = molecular target: T1, Bee Hyaluronidase; assay: SPR; XPR repeat 2
[3] = molecular target: T1, Bee Hyaluronidase; assay: SPR; XPR repeat 2
[4] = molecular target: T1, Bee Hyaluronidase; assay: SPR
[5] = molecular target: T1, Bee Hyaluronidase; assay: SPR

Row | Binder | koff [1] | koff [2] | Kd [3] | koff [4] | Kd [5]
1 | L14_7 (antibody, V domains shown) VH: not shown VL: DIQMTQSPASLSASVGETVTITCRSSRDIKDYITWYQQKQGKSPQLLVYNAKTLAEGVPSRFSGSGSGTEFSLKISSLQPEDFGNYYCQHHYGTRTFGGGTRLEIK | 0.000115 s⁻¹ | 0.000133 s⁻¹ | 0.962 nM |  | 
2 | WT 2J88 antibody (antibody, V domains shown) VH: not shown VL: DIQMTQSPASLSASVGETVTITCRASENIYSYLTWYQQKQGKSPQLLVYNAKTLAEGVPSRFSGSGSGTQFSLKISSLQPEDFGNYYCQHHYGTRTFGGGTRLEIK |  |  |  | 0.00111 s⁻¹ and 0.0013 s⁻¹ and 0.00116 s⁻¹ | 10.4 nM and 15.6 nM

Source: article PMC5942852 (2018)
